T1: Human B7H6 (ACRO biosystems, cat. No. B76-H52H8) (human, UniProt Q68D85 25-262)
T1 construct: Bought antigen; also called B7H6 antigen; human B7H6 protein
T1 sequence (looked up): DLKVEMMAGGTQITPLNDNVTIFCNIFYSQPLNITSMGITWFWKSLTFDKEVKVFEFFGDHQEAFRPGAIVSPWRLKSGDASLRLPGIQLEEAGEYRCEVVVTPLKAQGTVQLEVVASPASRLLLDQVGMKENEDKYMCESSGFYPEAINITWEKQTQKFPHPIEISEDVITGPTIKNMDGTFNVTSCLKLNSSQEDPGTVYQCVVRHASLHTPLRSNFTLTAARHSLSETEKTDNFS

B1: CD3xB7H6-17 bispecific antibody (bispecific antibody, human IgG1, L234A L235A)
chain 1: not shown
chain 2: DIVLTQSPVSLAVPLGQRATISCKASQSVDYDGDSYMNWYQQKPGQPPKLLIYAASTLHSGIPVRFSGSGSGTDFTLNIHPVEEEDAASYYCQQSKEDPRTFGGGTKLEIKGGGGSGGGGSGGGGSEVLLQQSGPEVVKPGASVKITCKASGYTFTDYNMDWVKQSHGKSLEWIGDINPNNAGTLYNQKFRGRVTLIVDKSSSTAYMELRSLTSDDTAVYYCARSEVFYGNYADYWGQGTTLTVSSEPKSCDKTHTCPPCPAPEAAGGPSVFLFPPKPKDTLMISRTPEVTCVVVDVSHEDPEVKFNWYVDGVEVHNAKTKPREEQYNSTYRVVSVLTVLHQDWLNGKEYKCKVSNKALPAPIEKTISKAKGQPREPQVCTLPPSRDELTKNQVSLSCAVKGFYPSDIAVEWESNGQPENNYKTTPPVLDSDGSFFLVSKLTVDKSRWQQGNVFSCSVMHEALHNHYTQKSLSLSPGK
notes: Heterodimer of two scFv-Fc units, knob-into-hole human IgG1 Fc; name formed by analogy with CD3xB7H6-14
B2: CD3xB7H6-18 bispecific antibody (bispecific antibody, human IgG1, L234A L235A)
chain 1: not shown
chain 2: DIVLTQSPVSLAVPLGQRATISCKASQSVDYDADSYMNWYQQKPGQPPKLLIYAASTLHSGIPVRFSGSGSGTDFTLNIHPVEEEDAASYYCQQSKEDPRTFGGGTKLEIKGGGGSGGGGSGGGGSEVLLQQSGPEVVKPGASVKITCKASGYTFTDYNMDWVKQSHGKSLEWIGDINPNNGGTLYNQKFRGRVTLIVDKSSSTAYMELRSLTSDDTAVYYCARSEVFYGNYADYWGQGTTLTVSSEPKSCDKTHTCPPCPAPEAAGGPSVFLFPPKPKDTLMISRTPEVTCVVVDVSHEDPEVKFNWYVDGVEVHNAKTKPREEQYNSTYRVVSVLTVLHQDWLNGKEYKCKVSNKALPAPIEKTISKAKGQPREPQVCTLPPSRDELTKNQVSLSCAVKGFYPSDIAVEWESNGQPENNYKTTPPVLDSDGSFFLVSKLTVDKSRWQQGNVFSCSVMHEALHNHYTQKSLSLSPGK
notes: as for B1
B3: CD3xB7H6-11 bispecific antibody (bispecific antibody, human IgG1, L234A L235A)
chain 1: not shown
chain 2: DIVLTQTPLSLSVTPGQPASISCKASQSVDYDGDSYMNWYLQKPGQPPQLLIYAASTLHSGVPDRFSGSGSGTDFTLKISRVEAEDVGVYYCQQSKEDPRTFGQGTKLEIKGGGGSGGGGSGGGGSEVQLVQSGAEVKKPGASVKVSCKASGYTFTDYNMDWVRQAPGQGLEWIGDINPNNGGTLYNQKFRGRVTLTVDKSISTAYMELSRLRSDDTAVYYCARSEVFYGNYADYWGQGTTVTVSSEPKSCDKTHTCPPCPAPEAAGGPSVFLFPPKPKDTLMISRTPEVTCVVVDVSHEDPEVKFNWYVDGVEVHNAKTKPREEQYNSTYRVVSVLTVLHQDWLNGKEYKCKVSNKALPAPIEKTISKAKGQPREPQVCTLPPSRDELTKNQVSLSCAVKGFYPSDIAVEWESNGQPENNYKTTPPVLDSDGSFFLVSKLTVDKSRWQQGNVFSCSVMHEALHNHYTQKSLSLSPGK
notes: as for B1
B4: CD3xB7H6-13 bispecific antibody (bispecific antibody, human IgG1, L234A L235A)
chain 1: not shown
chain 2: DIVLTQTPLSLSVTPGQPASISCKASQSVDYDGDSYMNWYLQKPGQPPQLLIYAASTLHSGIPDRFSGSGSGTDFTLKISRVEAEDVGVYYCQQSKEDPRTFGQGTKLEIKGGGGSGGGGSGGGGSEVQLVQSGAEVKKPGASVKVSCKASGYTFTDYNMDWVRQAPGQGLEWMGDINPNNGGTLYNQKFRGRVTMTVDTSISTAYMELSRLRSDDTAVYYCARSEVFYGNYADYWGQGTTVTVSSEPKSCDKTHTCPPCPAPEAAGGPSVFLFPPKPKDTLMISRTPEVTCVVVDVSHEDPEVKFNWYVDGVEVHNAKTKPREEQYNSTYRVVSVLTVLHQDWLNGKEYKCKVSNKALPAPIEKTISKAKGQPREPQVCTLPPSRDELTKNQVSLSCAVKGFYPSDIAVEWESNGQPENNYKTTPPVLDSDGSFFLVSKLTVDKSRWQQGNVFSCSVMHEALHNHYTQKSLSLSPGK
notes: as for B1
B5: CD3xB7H6-15 bispecific antibody (bispecific antibody, human IgG1, L234A L235A)
chain 1: not shown
chain 2: DIVLTQTPLSLSVTPGQPASISCKASQSVDYDGDSYMNWYLQKPGQPPQLLIYAASTLHSGIPDRFSGSGSGTDFTLKISRVEAEDVGVYYCQQSKEDPRTFGQGTKLEIKGGGGSGGGGSGGGGSEVQLVQSGAEVKKPGASVKVSCKASGYTFTDYNMDWVRQAPGQGLEWIGDINPNNGGTLYNQKFRGRVTLTVDKSISTAYMELSRLRSDDTAVYYCARSEVFYGNYADYWGQGTTVTVSSEPKSCDKTHTCPPCPAPEAAGGPSVFLFPPKPKDTLMISRTPEVTCVVVDVSHEDPEVKFNWYVDGVEVHNAKTKPREEQYNSTYRVVSVLTVLHQDWLNGKEYKCKVSNKALPAPIEKTISKAKGQPREPQVCTLPPSRDELTKNQVSLSCAVKGFYPSDIAVEWESNGQPENNYKTTPPVLDSDGSFFLVSKLTVDKSRWQQGNVFSCSVMHEALHNHYTQKSLSLSPGK
notes: as for B1
B6: CD3xB7H6-14 bispecific antibody (bispecific antibody, human IgG1, L234A L235A)
chain 1: not shown
chain 2: DIVLTQTPLSLSVTPGQPASISCKASQSVDYDGDSYMNWYLQKPGQPPQLLIYAASTLHSGIPDRFSGSGSGTDFTLKISRVEAEDVGVYYCQQSKEDPRTFGQGTKLEIKGGGGSGGGGSGGGGSEVQLVQSGAEVKKPGASVKVSCKASGYTFTDYNMDWVRQAPGQGLEWIGDINPNNGGTLYNQKFRGRVTLTVDTSISTAYMELSRLRSDDTAVYYCARSEVFYGNYADYWGQGTTVTVSSEPKSCDKTHTCPPCPAPEAAGGPSVFLFPPKPKDTLMISRTPEVTCVVVDVSHEDPEVKFNWYVDGVEVHNAKTKPREEQYNSTYRVVSVLTVLHQDWLNGKEYKCKVSNKALPAPIEKTISKAKGQPREPQVCTLPPSRDELTKNQVSLSCAVKGFYPSDIAVEWESNGQPENNYKTTPPVLDSDGSFFLVSKLTVDKSRWQQGNVFSCSVMHEALHNHYTQKSLSLSPGK
notes: Heterodimer of two scFv-Fc units, knob-into-hole human IgG1 Fc; lead molecule; also called CD3kB7H6-14
B7: CD3xB7H6-16 bispecific antibody (bispecific antibody, human IgG1, L234A L235A)
chain 1: not shown
chain 2: DIVLTQTPLSLSVTPGQPASISCKASQSVDYDGDSYMNWYLQKPGQPPQLLIYAASTLHSGIPDRFSGSGSGTDFTLKISRVEAEDVGVYYCQQSKEDPRTFGQGTKLEIKGGGGSGGGGSGGGGSEVQLVQSGAEVKKPGASVKVSCKASGYTFTDYNMDWVRQAPGKGLEWIGDINPNNGGTLYNQKFRGRVTLTVDKSISTAYMELSRLRSDDTAVYYCARSEVFYGNYADYWGQGTTVTVSSEPKSCDKTHTCPPCPAPEAAGGPSVFLFPPKPKDTLMISRTPEVTCVVVDVSHEDPEVKFNWYVDGVEVHNAKTKPREEQYNSTYRVVSVLTVLHQDWLNGKEYKCKVSNKALPAPIEKTISKAKGQPREPQVCTLPPSRDELTKNQVSLSCAVKGFYPSDIAVEWESNGQPENNYKTTPPVLDSDGSFFLVSKLTVDKSRWQQGNVFSCSVMHEALHNHYTQKSLSLSPGK
notes: as for B1
B8: CD3xB7H6-12 bispecific antibody (bispecific antibody, human IgG1, L234A L235A)
chain 1: not shown
chain 2: DIVLTQTPLSLSVTPGQPASISCKASQSVDYDGDSYMNWYLQKPGQPPQLLIYAASTLHSGVPDRFSGSGSGTDFTLKISRVEAEDVGVYYCQQSKEDPRTFGQGTKLEIKGGGGSGGGGSGGGGSEVQLVQSGAEVKKPGASVKVSCKASGYTFTDYNMDWVRQAPGKGLEWIGDINPNNGGTLYNQKFRGRVTLTVDKSISTAYMELSRLRSDDTAVYYCARSEVFYGNYADYWGQGTTVTVSSEPKSCDKTHTCPPCPAPEAAGGPSVFLFPPKPKDTLMISRTPEVTCVVVDVSHEDPEVKFNWYVDGVEVHNAKTKPREEQYNSTYRVVSVLTVLHQDWLNGKEYKCKVSNKALPAPIEKTISKAKGQPREPQVCTLPPSRDELTKNQVSLSCAVKGFYPSDIAVEWESNGQPENNYKTTPPVLDSDGSFFLVSKLTVDKSRWQQGNVFSCSVMHEALHNHYTQKSLSLSPGK
notes: as for B1

The binders below were run against T1, Human B7H6 (ACRO biosystems, cat. No. …) (assay: ELISA, B7H6 coated, HRP anti-human IgG detection).
Description: Human B7H6 (ACRO biosystems, cat. No. B76-H52H8) and human CD3 antigen (ACRO biosystems, cat. No. CDD-H52W1) were diluted to 2 μg/mL with coating buffer (35 mM NaHCO₃, 15 mM Na₂CO₃, pH 9.6), respectively. 100 μL of the diluted solution was added to each well of an ELISA plate at 4° C. overnight, and then washes with PBST (0.05% Tween 20-PBS, pH 7.2) 3 times. 300 μL of blocking buffer (1% BSA, 0.05% Tween20-PBS, pH 7.2) was added to the plate and allowed to stand at room temperature for 2 h, followed by washing with PBST three times. The corresponding bispecific antibody was added to each well and incubated at room temperature for 1 h, followed by washing with PBST three times. 100 μL of HRP-rabbit anti human IgG secondary antibody (Boster, cat. No. BA1070) diluted in blocking buffer was added to each well and incubated for 1 h at room temperature, followed by washing with PBST three times. TMB was added into each well. The plate was kept away from light at room temperature for 2-5 min, the reaction was stopped by adding 2 M sulfuric acid in each well, and finally OD450 values were read with microplate reader.
B1: binds. B2: binds. B3: binds. B4: binds. B5: binds. B6: binds. B7: binds. B8: binds.

— patent US20240124615A1 (HEFEI TG IMMUNOPHARMA, published 2024)
